Tests used:
[1] = target: EPHB1 (UniProt P54762); assay: phosphorylation enrichment, bacterial display (enrichment ratio); higher = better substrate or ligand; peptides without Tyr show the background
[2] = target: Fes (UniProt P07332); assay: as above
[3] = target: MERTK (UniProt Q12866); assay: as above
[4] = target: FGFR1 (UniProt P11362); assay: as above
[5] = target: FGFR3 (UniProt P22607); assay: as above
[6] = target: Hck (UniProt P08631); assay: as above
[7] = target: Fyn (UniProt P06241); assay: as above
Fyn, sequence (P06241 whole entry, looked up): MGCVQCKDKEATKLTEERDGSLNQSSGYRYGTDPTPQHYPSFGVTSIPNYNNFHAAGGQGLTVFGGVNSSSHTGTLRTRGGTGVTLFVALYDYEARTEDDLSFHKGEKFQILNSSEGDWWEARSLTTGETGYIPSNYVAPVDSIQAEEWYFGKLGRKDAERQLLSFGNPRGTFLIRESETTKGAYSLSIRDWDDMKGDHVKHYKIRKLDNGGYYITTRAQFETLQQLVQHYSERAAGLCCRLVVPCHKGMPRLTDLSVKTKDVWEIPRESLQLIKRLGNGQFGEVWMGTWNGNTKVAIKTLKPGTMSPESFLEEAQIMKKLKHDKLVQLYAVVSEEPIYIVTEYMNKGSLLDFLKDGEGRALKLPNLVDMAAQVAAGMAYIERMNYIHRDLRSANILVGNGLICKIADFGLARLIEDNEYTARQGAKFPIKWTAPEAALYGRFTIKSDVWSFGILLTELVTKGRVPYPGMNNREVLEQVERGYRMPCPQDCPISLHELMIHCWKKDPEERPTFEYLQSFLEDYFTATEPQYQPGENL

[8] = tested on: Fer (mouse); assay: as above
[9] = tested on: c-Src; assay: as above
[10] = tested on: c-Abl (mouse); assay: as above
[11] = target: Jak2 (UniProt O60674); assay: as above
[12] = tested on: AncSZ; assay: as above
[13] = target: EPHB2 (UniProt P29323); assay: as above
[14] = target: SHP2-C SH2; assay: SH2 binding enrichment of the phosphorylated peptide, bacterial display (enrichment ratio); higher = better substrate or ligand; peptides without Tyr show the background
[15] = target: c-Src SH2; assay: as above
[16] = target: Grb2 SH2 (UniProt P62993); assay: as above
Grb2 SH2, sequence (P62993 whole entry, looked up, the tested form may be a part): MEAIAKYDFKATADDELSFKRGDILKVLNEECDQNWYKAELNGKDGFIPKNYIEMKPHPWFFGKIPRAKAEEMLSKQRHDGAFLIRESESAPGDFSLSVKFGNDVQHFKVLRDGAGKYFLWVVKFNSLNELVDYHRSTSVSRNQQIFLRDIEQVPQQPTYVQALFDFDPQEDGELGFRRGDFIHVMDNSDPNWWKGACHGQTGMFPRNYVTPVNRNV
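Throughout, for SH2 binding enrichment of the phosphorylated peptide, bacterial display: peptide library displayed on the E. coli surface as eCPX fusions, selected cells deep-sequenced, score is each peptide's frequency after selection divided by its frequency in the input.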
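Throughout, for phosphorylation enrichment, bacterial display: 11-residue human phosphosite peptides and single-mutation variants displayed on the E. coli surface, counted by deep sequencing, each peptide's frequency after selection divided by its frequency in the unselected input library; frequency after pTyr selection over input frequency; kinase dosed for 20-30% of maximal phosphorylation in three min.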

Fes, sequence (P07332 whole entry, looked up): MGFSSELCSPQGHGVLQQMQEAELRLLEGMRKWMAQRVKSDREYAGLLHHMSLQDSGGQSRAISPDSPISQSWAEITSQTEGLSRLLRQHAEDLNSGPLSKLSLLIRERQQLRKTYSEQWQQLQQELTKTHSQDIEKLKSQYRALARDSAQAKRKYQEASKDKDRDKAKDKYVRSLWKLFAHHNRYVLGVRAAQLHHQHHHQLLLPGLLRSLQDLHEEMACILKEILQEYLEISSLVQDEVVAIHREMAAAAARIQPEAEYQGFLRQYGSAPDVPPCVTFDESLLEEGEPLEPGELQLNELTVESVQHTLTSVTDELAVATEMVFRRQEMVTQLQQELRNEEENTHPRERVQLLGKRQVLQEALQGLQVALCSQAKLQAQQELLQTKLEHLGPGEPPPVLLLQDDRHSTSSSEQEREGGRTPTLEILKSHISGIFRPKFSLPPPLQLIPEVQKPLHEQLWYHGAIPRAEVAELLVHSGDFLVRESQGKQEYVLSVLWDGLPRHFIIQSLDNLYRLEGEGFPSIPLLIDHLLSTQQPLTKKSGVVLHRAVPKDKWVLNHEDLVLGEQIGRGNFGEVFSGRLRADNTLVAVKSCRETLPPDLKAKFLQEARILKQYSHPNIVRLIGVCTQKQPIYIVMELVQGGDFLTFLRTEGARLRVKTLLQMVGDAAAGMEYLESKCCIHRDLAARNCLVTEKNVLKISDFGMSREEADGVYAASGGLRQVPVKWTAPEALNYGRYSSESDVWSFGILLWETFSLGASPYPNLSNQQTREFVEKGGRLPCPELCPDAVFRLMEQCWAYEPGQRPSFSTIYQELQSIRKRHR
EPHB1, sequence (P54762 whole entry, looked up): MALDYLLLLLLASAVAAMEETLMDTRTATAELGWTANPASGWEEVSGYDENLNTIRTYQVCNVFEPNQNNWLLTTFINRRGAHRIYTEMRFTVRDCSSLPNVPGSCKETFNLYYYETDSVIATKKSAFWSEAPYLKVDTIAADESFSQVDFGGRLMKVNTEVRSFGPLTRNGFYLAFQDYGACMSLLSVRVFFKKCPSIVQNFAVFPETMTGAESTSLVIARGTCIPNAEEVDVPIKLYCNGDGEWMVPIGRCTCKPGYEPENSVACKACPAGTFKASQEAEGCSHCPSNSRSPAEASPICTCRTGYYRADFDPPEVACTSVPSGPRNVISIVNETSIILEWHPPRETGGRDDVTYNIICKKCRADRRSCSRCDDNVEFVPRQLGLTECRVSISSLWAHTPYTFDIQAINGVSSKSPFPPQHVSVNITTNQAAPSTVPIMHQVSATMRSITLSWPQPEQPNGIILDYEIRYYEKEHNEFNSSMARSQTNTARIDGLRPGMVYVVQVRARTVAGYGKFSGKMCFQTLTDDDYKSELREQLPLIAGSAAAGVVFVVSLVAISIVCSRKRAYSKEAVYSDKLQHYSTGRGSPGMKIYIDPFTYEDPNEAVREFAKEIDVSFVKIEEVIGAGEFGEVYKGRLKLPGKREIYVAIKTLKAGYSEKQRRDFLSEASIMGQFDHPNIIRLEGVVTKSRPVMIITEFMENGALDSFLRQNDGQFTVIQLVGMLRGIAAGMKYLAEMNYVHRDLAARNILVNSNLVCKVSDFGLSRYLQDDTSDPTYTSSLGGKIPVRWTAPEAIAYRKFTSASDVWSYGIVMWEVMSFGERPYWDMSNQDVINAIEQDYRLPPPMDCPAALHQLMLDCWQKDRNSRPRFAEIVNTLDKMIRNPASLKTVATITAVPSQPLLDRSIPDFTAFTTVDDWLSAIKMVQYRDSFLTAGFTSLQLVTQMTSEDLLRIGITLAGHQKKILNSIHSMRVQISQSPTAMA
FGFR3, sequence (P22607 whole entry, looked up): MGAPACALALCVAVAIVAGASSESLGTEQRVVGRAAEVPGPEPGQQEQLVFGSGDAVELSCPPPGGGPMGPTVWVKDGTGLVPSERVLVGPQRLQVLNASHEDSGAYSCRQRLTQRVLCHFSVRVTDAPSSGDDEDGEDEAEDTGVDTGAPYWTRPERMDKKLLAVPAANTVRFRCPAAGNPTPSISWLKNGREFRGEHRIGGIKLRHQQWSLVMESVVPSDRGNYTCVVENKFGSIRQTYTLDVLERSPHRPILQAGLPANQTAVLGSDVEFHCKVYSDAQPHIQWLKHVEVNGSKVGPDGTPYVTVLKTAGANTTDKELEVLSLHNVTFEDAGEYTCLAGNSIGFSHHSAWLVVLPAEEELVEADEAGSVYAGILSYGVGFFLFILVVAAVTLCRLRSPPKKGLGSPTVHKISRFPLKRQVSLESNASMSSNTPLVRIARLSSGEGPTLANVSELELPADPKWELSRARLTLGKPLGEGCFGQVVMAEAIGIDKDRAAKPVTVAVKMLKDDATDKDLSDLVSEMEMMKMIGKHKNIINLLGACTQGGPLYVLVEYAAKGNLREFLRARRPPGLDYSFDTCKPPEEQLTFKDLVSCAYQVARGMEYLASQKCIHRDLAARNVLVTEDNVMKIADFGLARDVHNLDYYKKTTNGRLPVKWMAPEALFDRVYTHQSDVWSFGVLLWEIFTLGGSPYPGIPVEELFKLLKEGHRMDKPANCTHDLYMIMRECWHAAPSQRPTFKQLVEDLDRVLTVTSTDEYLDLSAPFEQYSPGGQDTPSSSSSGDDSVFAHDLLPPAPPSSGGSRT
Hck, sequence (P08631 whole entry, looked up): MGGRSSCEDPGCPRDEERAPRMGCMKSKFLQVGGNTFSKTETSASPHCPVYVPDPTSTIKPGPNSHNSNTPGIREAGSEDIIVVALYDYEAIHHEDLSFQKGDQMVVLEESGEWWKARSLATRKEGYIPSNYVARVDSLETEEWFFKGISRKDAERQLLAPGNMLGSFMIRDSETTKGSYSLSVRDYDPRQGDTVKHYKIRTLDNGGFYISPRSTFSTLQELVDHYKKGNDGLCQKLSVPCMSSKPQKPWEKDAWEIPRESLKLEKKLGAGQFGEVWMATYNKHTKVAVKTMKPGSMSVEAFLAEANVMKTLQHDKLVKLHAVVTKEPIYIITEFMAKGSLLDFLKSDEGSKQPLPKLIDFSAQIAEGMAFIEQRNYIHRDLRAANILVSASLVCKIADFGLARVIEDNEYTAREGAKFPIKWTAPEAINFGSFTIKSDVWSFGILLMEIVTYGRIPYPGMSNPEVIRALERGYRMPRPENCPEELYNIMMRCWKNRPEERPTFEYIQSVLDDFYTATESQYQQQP
FGFR1, sequence (P11362 whole entry, looked up): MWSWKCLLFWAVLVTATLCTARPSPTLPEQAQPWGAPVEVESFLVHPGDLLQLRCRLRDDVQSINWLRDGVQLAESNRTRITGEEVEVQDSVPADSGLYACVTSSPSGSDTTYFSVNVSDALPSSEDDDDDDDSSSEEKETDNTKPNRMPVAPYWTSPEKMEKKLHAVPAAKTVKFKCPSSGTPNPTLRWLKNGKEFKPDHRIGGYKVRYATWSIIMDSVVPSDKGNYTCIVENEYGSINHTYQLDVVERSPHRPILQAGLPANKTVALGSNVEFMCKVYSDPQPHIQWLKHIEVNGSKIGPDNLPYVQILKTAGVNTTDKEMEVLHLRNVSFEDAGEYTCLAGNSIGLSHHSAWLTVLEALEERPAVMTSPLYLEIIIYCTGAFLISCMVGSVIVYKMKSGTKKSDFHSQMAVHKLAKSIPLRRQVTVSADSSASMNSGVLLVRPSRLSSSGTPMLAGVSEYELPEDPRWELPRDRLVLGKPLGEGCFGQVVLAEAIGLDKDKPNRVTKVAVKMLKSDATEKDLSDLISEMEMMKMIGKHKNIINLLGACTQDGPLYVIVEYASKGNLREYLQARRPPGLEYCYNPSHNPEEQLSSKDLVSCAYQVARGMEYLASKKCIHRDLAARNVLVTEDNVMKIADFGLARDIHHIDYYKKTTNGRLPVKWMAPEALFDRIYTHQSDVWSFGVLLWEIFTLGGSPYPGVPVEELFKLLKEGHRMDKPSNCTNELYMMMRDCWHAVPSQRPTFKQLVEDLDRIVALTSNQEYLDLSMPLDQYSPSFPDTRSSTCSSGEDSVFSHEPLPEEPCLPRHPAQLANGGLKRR

Sequence | phosphorylation enrichment [1] | phosphorylation enrichment [2] | phosphorylation enrichment [3] | phosphorylation enrichment [4] | phosphorylation enrichment [5] | phosphorylation enrichment [6] | phosphorylation enrichment [7] | phosphorylation enrichment [8] | phosphorylation enrichment [9] | phosphorylation enrichment [10] | phosphorylation enrichment [11] | phosphorylation enrichment [12] | phosphorylation enrichment [13] | SH2 binding enrichment [14] | SH2 binding enrichment [15] | SH2 binding enrichment [16]
LRTAVYHEILI [CREBBP_Y1450] | 1.97 | 3.73 | 7.48 | 16.7 | 12.1 | 7.29 | 7.22 | 14.4 | 12.5 | 2.77 | 3.67 | 3.59 | 1.85 | 0.858 | 3.56 | 0.86
LSALDYKIFYY [WDPCP_Y210] | 0.634 | 1.18 | 0.365 | 0.816 | 0.928 | 0.499 | 0.511 | 0.404 | 0.495 | 0.787 | 1.29 | 1.18 | 0.602 | 0.868 | 0.956 | 1.03
LSEEKYELKEG [TREM1_Y29_T25S] | 0.712 | 1.4 | 0.449 | 0.592 | 0.835 | 0.513 | 0.574 | 0.627 | 0.489 | 0.875 | 1.18 | 1.54 | 0.628 | 0.603 | 0.391 | 0.713
LSNPAYCLLLA [DDR1_Y513_R514C] | 1.05 | 1.63 | 5.79 | 6.78 | 4.44 | 0.855 | 0.605 | 0.973 | 0.699 | 0.912 | 1.49 | 1.5 | 0.844 | 0.819 | 0.591 | 0.683
LSQAKYQIRFR [CRLF1_Y272_F268S_YF] | 0.682 | 0.672 | 0.499 | 0.558 | 0.596 | 0.431 | 0.621 | 0.499 | 0.421 | 0.597 | 0.63 | 0.933 | 0.286 | 0.78 | 0.645 | 1.12
LSQDVYEEDSF [RET_Y900_R897Q_YF] | 1.19 | 2.43 | 1.26 | 0.991 | 1.44 | 0.945 | 0.882 | 0.978 | 0.852 | 1.58 | 2.56 | 2.12 | 0.962 | 0.687 | 0.671 | 0.83
LSSEMYVKSYT [F5_Y2149] | 1.14 | 1.56 | 0.76 | 1.27 | 1.12 | 0.991 | 1.2 | 0.771 | 0.73 | 0.733 | 1.12 | 1.46 | 2.05 | 0.609 | 0.479 | 0.89
LSSETYVKSYT [F5_Y2149_M2148T] | 0.553 | 0.902 | 0.513 | 0.606 | 0.582 | 0.529 | 0.726 | 0.738 | 0.668 | 0.908 | 1.37 | 0.946 | 0.74 | 0.818 | 0.555 | 0.936
LSVISYDLGMF [GBA3_Y174_M172I] | 0.742 | 1.27 | 0.424 | 0.328 | 0.581 | 0.481 | 0.436 | 0.415 | 0.586 | 0.961 | 1.21 | 1.2 | 0.72 | 1.12 | 0.888 | 1.12
LTMAPYSSVSL [FAM81A_Y24] | 0.412 | 0.618 | 0.556 | 0.498 | 0.488 | 0.495 | 0.536 | 6.06 | 0.897 | 0.511 | 0.518 | 0.628 | 0.45 | 1.82 | 2.72 | 0.691
LTTPTFGDLNH [TUBB_Y222_Y222F] | 0.407 | 0.871 | 0.442 | 0.554 | 0.577 | 0.308 | 0.378 | 1.05 | 0.577 | 0.612 | 0.609 | 0.729 | 0.384 | 0.551 | 0.822 | 0.604
LTTPTYGDLNH [TUBB_Y222] | 1.14 | 1.47 | 0.836 | 1.03 | 1.11 | 4.7 | 5.58 | 1.07 | 3.12 | 0.702 | 0.84 | 1.41 | 1.44 | 0.748 | 0.662 | 1.02
LVTAWYIGFLC [KCNQ2_Y237] | 1.12 | 2.62 | 0.629 | 0.872 | 1.3 | 1.11 | 0.748 | 0.873 | 1.15 | 2.12 | 2.67 | 2.1 | 0.95 | 0.712 | 0.622 | 1.16
LYEDRYLLGTS [ASS1_Y87] | 3.01 | 0.981 | 0.786 | 0.702 | 0.95 | 3.73 | 1.79 | 4.27 | 0.837 | 0.79 | 0.894 | 0.982 | 1.23 | 1.05 | 0.546 | 0.82
LYRYGYANTSE [SI_Y1233_C1229Y] | 0.437 | 0.775 | 0.36 | 0.46 | 0.507 | 0.395 | 0.383 | 0.32 | 0.351 | 0.511 | 0.6 | 0.806 | 0.39 | 1.31 | 2.44 | 2.63
MANFVYKAGPS [MAML2_Y515_M514V_YF] | 0.436 | 0.65 | 0.371 | 0.517 | 0.469 | 0.499 | 0.423 | 0.39 | 0.365 | 0.417 | 0.477 | 0.681 | 0.553 | 0.825 | 0.66 | 1.01

From the supplement of paper PMC10065799, “High-throughput profiling of sequence recognition by tyrosine kinases and SH2 domains using bacterial peptide display” (eLife, 2023)
